Measured values published in the nanobody polyreactivity screen of Harvey et al. (2022).

Assay: yeast display, Sf9 membrane polyspecificity reagent, FACS + sequencing; frameworks hold sequencing errors
How it was run: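 Nanobodies from a synthetic yeast display library (Saccharomyces cerevisiae BJ5465), induced 36–48 hours with galactose, were stained 1 hour at 4 °C with 10% biotinylated, detergent-solubilized Sf9 membrane reagent, enriched on streptavidin microbeads, then FACS-sorted. Anti-HA (expression) and streptavidin (reagent binding) fluorescence set low and high (top ~1%) gates. Polyreactivity labels come from the gate of origin. Genes were colony-PCR amplified, MiSeq 2 × 250 sequenced and filtered by CDR length.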

Row | Sequence | polyreactivity (PSR sort gate)
1 | QVQLVESGGRLVKAGGSLRLSCAASGRTFSSYAMGWYRHAPGKERELVAAISSGGSTYYADSVKGRFTISRDNAKNTVYILMNSQIPEDTAVYYCNRRLYYKIGRGFSYYWGQGTQVTVSS | high polyreactivity
2 | QVQLVESGGRLVQAGASLRLSCAASGFTLHWYAMGWYRQAPGKERELVASITNTGRTYYADSVKGRFTISRDNAKNTVYLQINILKPEDTAVYYCAAGTQYSHYYVADYCRDYWGQGTQVTVSS | high polyreactivity
3 | QVQLVESGGRLVQAGGILRLSCAASGIIFKDYAMGWYRQATGKERELVAAISWSGSSTYYADSVKGRFTISRDNAKNTVYLQMNSLKPEDTAVYYCNAFPGDYRYDYWGQGTQVTVSS | high polyreactivity
4 | QVQLVESGGRLVQAGGRLRLSCDASGYIISSYVMGWYRQAHGKDKELVAAINRRGGSTYYADSVKGRFTISRDNAKNTVYLQMNSLKPEDTAVYYCAADGLSGYGSGGYYGMGYWGQGTQVTVSS | high polyreactivity
5 | QVQLVESGGRLVQAGGSIRLSCAASGGIFTAYAMGCYRQAPGKEREFVAGIDRSGGRTYYADSVKGRFTISRDNAKNNVYLQMNSLKPEDTAVYYCYARGYVYQNQLYYYWGQGSQVTVSS | high polyreactivity
6 | QVQLVESGGRLVQAGGSLRLRGAASGNTNIPNAMGWYRQAPGKERELLAAIRASGGSTYYADSVKGRFTISRDNAKNTVYFQLNSLKTEDTSVYYCNADIWYKTYDYWGQGTQVTVSS | low polyreactivity
7 | QVQLVESGGRLVQAGGSLRLSCAASGFIFCLNAMGWYRHAQGKERELVATIDNSGGSTYADSVKGRFTISRDNAKNTVYLQMNSLKPEVTAVYYCARDDGLLSYGYWGQGTQVTVSS | low polyreactivity
8 | QVQLVESGGRLVQAGGSLRLSCAASGFIFVDYAMGWYRQAPGKERELVAAITYDGGSTYYADSVKGRFTISRDNAKNTVYLPMNSLKPEDTAVYYCATQGLWIFVVVEMDYWGQGTQVTVSS | low polyreactivity
9 | QVQLVESGGRLVQAGGSLRLSCAASGFSFRGNAMGWYRQAPGKERELVATISRGGNTNYADSVKGRFTISRDNAKNTVYLQMNSLKPEDTAVYYCAAVSYIRSKVAYNYWGQGTQVTVSS | low polyreactivity
10 | QVQLVESGGRLVQAGGSLRLSCAASGFTFDSYDMGWYRQEPGKERELVAAITWSGGSTYYADSVKGRFTISRDNAKNTVYLQMNSLKPEDTAVYYCNADTGTYWVPWYHDGYDYWGQGTQVTVSS | low polyreactivity
11 | QVQLVESGGRLVQAGGSLRLSCAASGFTFGENAMGWYRQAPGKERELVAAITSGDGTSYADSVKGRFTISRDNAKNTVYLQMNSLKPEDTAVYYCAADGGDELYYSTYDYWGQGTQVTVSS | low polyreactivity
12 | QVQLVESGGRLVQAGGSLRLSCAASGFTFWNYAMGWYRQAPGKERELVAAISRSGTSTYYADSVKGRFTISRDYAKNTVYLQMNSLKPEDTAVYYCNVLRVKSITYLMDYWGQGTQVTVSS | high polyreactivity
13 | QVQLVESGGRLVQAGGSLRLSCAASGIIFRFYPMGWSRQAPGKERELVAAIRTSGGSTYYADSVKGRFTISRDNAKNTVYLQMNSLKPEDTAVYYCAAGPRAYSYRIYALYYWGQGTQVTVSS | high polyreactivity
14 | QVQLVESGGRLVQAGGSLRLSCAASGITIRWYAKGWYRQAPGKERELVSRIDGRGASTYADSVKGRFTSSRDNAKNTVYLQMNRLKPEDTAVYYCAVAQVRVSYLWVRKFYYWGQGTQVTVSS | high polyreactivity
15 | QVQLVESGGRLVQAGGSLRLSCAASGLIFVHYAMGWYRQSPGKERELVAAISAGGGSTYYADSVKGRFTISRDNAKNTVYLQMNSLKPEDTAVYYCNARVVNYVRPRTGAREYDFWGQGTQVTVSS | high polyreactivity
16 | QVQLVESGGRLVQAGGSLRLSCAASGRIFGYYAMGWYRQAPGKERELVAAISSGGNTYYADSVKGRFTISRDNAKNTVYLQMNSLKPEDTAVYYCNEVYVGWQYGYDYWGQGTQVTVSS | low polyreactivity
17 | QVQLVESGGRLVQAGGSLRLSCAASGRIFNRYAMGWYRQAPGKERELVAAITRGGSTYYADSVKGRFTMSRDNAKITVYLQMNSLKPEDSAVYYCAGRVGYPYYYWGQGTQVTVSS | high polyreactivity
18 | QVQLVESGGRLVQAGGSLRLSCAASGRIFSRNAMGWYRQAPGKERELVAGISARGGRTYYADSVKGRFTISRDNAKNTVYLQMNSLKPEDTAVYYCAASFSAIRGGVRVTIDYYWGQGTQVTVSS | high polyreactivity
19 | QVQLVESGGRLVQAGGSLRLSCAASGRIFVVNAMGWYRQAPGKEREFVAAITDNTGSTYYADSVKGRFTISRDNAKNTGYLQMNSLNPEDTAVYYCAAYGYSKDLWNFYYWGQGTQVTVSS | low polyreactivity
20 | QVQLVESGGRLVQAGGSLRLSCAASGRIFWHNAMGWYRQAPGKETELVAAISSRGGSTSYSDSVKGRFTISRDNAKNTVYLQMNSLKPEDTAVYYCAALFRPRVHRYDYWGQGTQVTVSS | low polyreactivity
21 | QVQLVESGGRLVQAGGSLRLSCAASGRLFASNAMGWYLQAPGTEMELVAGNSRNGGSTFYADSVKGRFTISRDNAKNTVYLQMNSRKPEDSAVYYCARYYTHSGGYRDRIYYFWGQGTQVTVSS | low polyreactivity

Row | Sequence | polyreactivity (PSR sort gate)
22 | QVQLVESGGRLVQAGGSLRLSCAASGRTFDFYAMGWYRQAPGKERELVAAISSRGGSTYYADSVKGRFTISRDNAKNTVYLQMNSLKPEDTAVYYCAKDLGYRGRYNYWGQGTQVTVSS | low polyreactivity
23 | QVQLVESGGRLVQAGGSLRLSCAASGRTFLHNAMGWYRQAPGKERELVAAIDSGGTTHYADSVKGRFTISRDNAKNTVYLQMNSLKPEDTAVYNCAARPTRGHWWYGNWGQGTQVTVTS | low polyreactivity
24 | QVQLVESGGRLVQAGGSLRLSCAASGRTFVSYAMGWYRQAPGKERELVATITGSTGGTYYADSVKGRFTISRDNAKNTVYLQMNSLKPEDTAVYYCNKDYYYNPGNVASGYDYWGHGTQVTVSS | low polyreactivity
25 | QVQLVESGGRLVQAGGSLRLSCAASGSIFAWSMGWYRPAPGKERELVAAISSGGSTYYADSVKGRFTISRDNAKNTVYFQMNSLKPEDTAVYYCAAGLISRFSRYYFWGQGTQVTVSS | high polyreactivity
26 | QVQLVESGGRLVQAGGSLRLSCAASGSIFRYYALGWYRQAPGKERELVAAISWSGGSTYYADSVKGRFTISRDNAKNTVYLQMNSLKPEDTAVYYCATTPGVWSTGGTNGFGYWGQGNQVTVSS | high polyreactivity
27 | QVQLVESGGRLVQAGGSLRLSCAASGSIIAWYVLGWYRRAAGKERELVAGIDTSGGSTFYADSVMGRFTISRDIAKNTVYLQMNSLKTEATAVYYCAADTWYRGPWEFDYWGQGTQVTVSS | low polyreactivity
28 | QVQLVESGGRLVQAGGSLRLSCAASGSTFRGYAMGWYIPAPGKEWELVATITSGGSTKYADSVKGRFTISRDNAKNTVYLQMNSLKPEDTAVYYCNAVPRSWSPYRHWFDYWGQGTQVTVSS | low polyreactivity
29 | QVQLVESGGRLVQAGGSLRLSCAASGSTFVCYAMGWYRQAPGKERELVAAISSGGRTHYADSVMARFTISRDNAKNTVILQMNSLKREDTAFYYCNAAYYILRFRYDYWGQGTQVTVSS | high polyreactivity
30 | QVQLVESGGRLVQAGGSLRLSCAASGSTFYPYAMGWYRQAPGKERELVAAINGNGGRTYYADSVKGRFTISRDNAKNTVYLQMNSLKPEDTAVYYCAVVRVAWGHRSDYWGQGTQVTVSS | high polyreactivity
31 | QVQLVESGGRLVQAGGSLRLSCAASGYIFKTNVMGWYRQAPGKEREMVAAISWSGGRTYYADSVKGRFTISRDYGKNCVYLQMNSLKPEDTSVYYFAAVGRQSIYFVDYDFWGQGTQVTVSS | high polyreactivity
32 | QVQLVESGGRLVQAGGSLRLSCAAYGSTFQGYAMGWYRQAPGKERELVADISWSGGSTYYADSVKGRFTISRDNAKNTVYLQMNSLKPEDTAVYYCNAVGYLDFEWGQGTQVTVSS | low polyreactivity
33 | QVQLVESGGRLVQAGGSLRLSCASSGFTFRYYAMGWYRQAPGKERELVASITGNGGSTYYADSVKGRFTISRDNAKNTVFLHMNSLKPEDTAVYYCNARVRGYYEYNYWGQGTQVTVSS | high polyreactivity
34 | QVQLVESGGRLVQAGGSLRLSCSASGLTFTNYAMGSYRQAPGKERELVAAISNSGATTYYADSVKGRFTISRDNAKNTVYVQLKSLKPEDTAVYYCAATSYTATWRYYYWGQGTQVTVSS | high polyreactivity
35 | QVQLVESGGRLVQAGGSLSISCAASGSTFTSYSMGWYRQAPGKERELVAAIRRIGGDTYYADSVKGRFTISRDNAKNTVYLQMNSLKPEDTAVNYCAAVRWRSEPYWYHAMEHWGQGTQVTVSS | low polyreactivity
36 | QVQLVESGGRLVQAGGSRRLSCAASGFTFGIYAMGWYRQAPGKARELVAAITSGGITKYADSVKGRFTISRDNAKNTVYLQMKSLKPEDTAVYYCAATGFRQSYDSTWYRYDYWGQGTQVTVSS | low polyreactivity
37 | QVQLVESGGRLVQAGGSRRLSCAASGSTFYTNDMGWYIQAPGKERELVAAISSGGDYADSVKGRFTISRDNAKNTVYLQMNSLKPEDTAVYYCAKADTKWGQGTQVTVSS | low polyreactivity
38 | QVQLVESGGRLVQAGGTLRLSCADSGNTLHVYAMGWYRQAPGKERELVARITGGGRKYYADSVKGRFTISRDNAKNTVYLLMNSLNPEDTAVYYCATDYYGHKFLYDYWGQGTQVTVSS | low polyreactivity
39 | QVQLVESGGRLVQAVGSLRLSCAASGRTFEYYNMGWYRQEPGKEREFVAANTWGGGSTSYADSVKGRFTISRDNAKNTVYLQMNSLKPEDTAVYYCAADDVYYDDDYWGQGTQVTVSS | high polyreactivity
40 | QVQLVESGGRLVQGRGSLRLSCAASGRTFHIYDIGWYRQAPGKERELVAAIRGRSGSTYYADSVKGRFTISRDNAKNNDYLQMNSLTPEDNAVYYCAAENLGRFVASEYDYWGQGTQVTVSS | high polyreactivity
41 | QVQLVESGGSIVQAGGSLRLSCAASGSTFDVYDMGWYRHAPGKERELVAAITTSGGGTYYADSVKGRFTISRDNAKNTGYLQMNSLKPEDTAVYYCAADTWRDGDDYWGQGTQVTVSS | low polyreactivity
